What all share (assay): cell-based or functional assay
Assay [1] concerns the target HIV-1 MGRM-A-010 Env (HIV-1).
The target in assay [2] is HIV-1 Env of pseudovirus isolate MGRM-C-006 (clade C) (HIV-1).
Assay [3] deals with HIV-1 Env of isolate MGRM-F1-013 (HIV-1).
The target of assay [4] is HIV-1 Env of isolate MGRM-C-001 (HIV-1).
The target in assay [5] is HIV-1 Env of isolate 92UG114 (pseudovirus) (HIV-1).
Assay [6] concerns the target HIV-1 Env of pseudovirus isolate MGRM-C-015 (clade C) (HIV-1).
For assay [7], the target named is HIV-1 Env of isolate MGRM-C-004 (HIV-1).
In assay [8] the target is HIV-1 Env of isolate MGRM-A-002 (pseudovirus) (HIV-1).
The target in assay [9] is HIV-1 Env of isolate MGRM-F1-004 (HIV-1).
Assay [10] addresses HIV-1 Env of isolate MGRM-D-005 (pseudovirus) (HIV-1).
The target of assay [11] is HIV-1 JR-CSF Env S334A (HIV-1 isolate JR-CSF) (UniProt P20871).
Assay [12] concerns the target HIV-1 Env of pseudovirus isolate MGRM-C-026 (clade C) (HIV-1).
The target in assay [13] is HIV-1 Env of isolate MGRM-F1-010 (HIV-1).
The target in assay [14] is HIV-1 Env of isolate MGRM-Chronic-B-002 (HIV-1).
For assay [15], the target named is HIV-1 JR-CSF Env W395A (HIV-1 (isolate JR-CSF)) (UniProt P20871).
Assay [16] concerns the target HIV-1 Env of isolate MGRM-AG-006 (subtype AG) (HIV-1).
The target in assay [17] is HIV-1 Env of isolate MGRM-AE-003 (subtype AE) (HIV-1).
Assay [18] addresses HIV-1 JR-CSF Env L416A (HIV-1 (isolate JR-CSF)) (UniProt P20871).
The target in assay [19] is HIV-1 Env of isolate MGRM-AE-007 (subtype AE) (HIV-1).
Assay [20] deals with HIV-1 Env of isolate MGRM-AE-001 (subtype AE) (HIV-1).
The target of assay [21] is HIV-1 Env of pseudovirus isolate MGRM-C-012 (clade C) (HIV-1).
Assay [22] has as its target HIV-1 Env of pseudovirus isolate MGRM-C-009 (clade C) (HIV-1).

The record followed here is patent publication US20240132578A1.

5147_N06 (PGT-130) (antibody): the IC50, pseudovirus neutralization in [1] is 0.0054 µg/mL; in [2], 0.095 µg/mL; in [6], 0.344 µg/mL; in assay [12] it was 0.036 µg/mL; in [16] it was 0.009 µg/mL; in assay [17], 0.337 µg/mL. The IC50, pseudovirus neutralization in assay [19] is 0.083 µg/mL; in assay [20], 1 µg/mL; in [21], > 50 µg/mL; in assay [22], > 50 µg/mL. In addition, the IC50 (µg/mL), pseudovirus neutralization in [3] was > 50 µg/mL; in assay [4], > 50 µg/mL; in assay [5], > 50 µg/mL; in [7], 2.76 µg/mL; in [8], 0.01 µg/mL; in [9], 0.023 µg/mL. Moreover, the IC50 (µg/mL), pseudovirus neutralization in assay [10], in assay [13] and in assay [14] was > 50 µg/mL in each case. Also, the Fold IC50 increase relative to wild-type in assay [11] stood at 0.5 fold. The Fold IC50 increase relative to wild-type (pseudovirus neutralization) worked out at 0.6 fold in assay [15] and 1 fold in assay [18].
As for 5343_B08 (PGT-135) (antibody), the IC50, pseudovirus neutralization in assay [2] was > 50 µg/mL; in assay [6] it was 0.104 µg/mL; in assay [12], 0.004 µg/mL; in [16], 17.9 µg/mL; in assay [17] it was > 50 µg/mL; in assay [19], > 50 µg/mL. Moreover, the IC50, pseudovirus neutralization in assay [20] is > 50 µg/mL; in [21], 0.017 µg/mL; in [22], > 50 µg/mL. The IC50 (µg/mL), pseudovirus neutralization in assay [3] is 21.1 µg/mL; in assay [4], 10.1 µg/mL; in assay [5] it was 1.29 µg/mL; in assay [7], 0.046 µg/mL; in assay [8], > 50 µg/mL; in [9] it was 0.211 µg/mL. The IC50 (µg/mL), pseudovirus neutralization in assay [10], in assay [13] and in assay [14] was > 50 µg/mL each time. Further, the Fold IC50 increase relative to wild-type in [11] is > 30 fold. In addition, the Fold IC50 increase relative to wild-type (pseudovirus neutralization) in assay [15] was 0.6 fold; in assay [18], 1.2 fold.
